# Measured values taken from patent US20240018502A1.
# Biological target: plasma purified human complement protein C3 (human) (UniProt P01024)
# Assay: cell-based or functional assay
# Sequence of plasma purified human complement protein C3 (human) (P01024 23-667, chain 1 of 2): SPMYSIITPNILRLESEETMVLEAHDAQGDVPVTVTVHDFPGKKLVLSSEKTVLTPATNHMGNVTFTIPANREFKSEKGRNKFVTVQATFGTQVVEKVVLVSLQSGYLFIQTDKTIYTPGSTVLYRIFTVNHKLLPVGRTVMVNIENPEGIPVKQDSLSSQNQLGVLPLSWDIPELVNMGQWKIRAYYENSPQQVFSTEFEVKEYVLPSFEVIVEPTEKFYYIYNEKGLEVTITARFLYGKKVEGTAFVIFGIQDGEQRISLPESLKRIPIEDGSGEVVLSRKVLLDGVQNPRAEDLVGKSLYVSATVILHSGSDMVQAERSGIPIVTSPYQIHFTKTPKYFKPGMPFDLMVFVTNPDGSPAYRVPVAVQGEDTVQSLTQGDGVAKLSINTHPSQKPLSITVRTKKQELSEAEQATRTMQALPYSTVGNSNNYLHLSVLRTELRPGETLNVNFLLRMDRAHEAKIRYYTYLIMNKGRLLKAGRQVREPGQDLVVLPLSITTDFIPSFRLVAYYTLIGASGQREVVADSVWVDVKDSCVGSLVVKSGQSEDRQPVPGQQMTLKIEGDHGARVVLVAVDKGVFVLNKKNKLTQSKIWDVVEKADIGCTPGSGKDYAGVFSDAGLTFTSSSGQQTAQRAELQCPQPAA
# Sequence of plasma purified human complement protein C3 (human) (P01024 672-1663, chain 2 of 2): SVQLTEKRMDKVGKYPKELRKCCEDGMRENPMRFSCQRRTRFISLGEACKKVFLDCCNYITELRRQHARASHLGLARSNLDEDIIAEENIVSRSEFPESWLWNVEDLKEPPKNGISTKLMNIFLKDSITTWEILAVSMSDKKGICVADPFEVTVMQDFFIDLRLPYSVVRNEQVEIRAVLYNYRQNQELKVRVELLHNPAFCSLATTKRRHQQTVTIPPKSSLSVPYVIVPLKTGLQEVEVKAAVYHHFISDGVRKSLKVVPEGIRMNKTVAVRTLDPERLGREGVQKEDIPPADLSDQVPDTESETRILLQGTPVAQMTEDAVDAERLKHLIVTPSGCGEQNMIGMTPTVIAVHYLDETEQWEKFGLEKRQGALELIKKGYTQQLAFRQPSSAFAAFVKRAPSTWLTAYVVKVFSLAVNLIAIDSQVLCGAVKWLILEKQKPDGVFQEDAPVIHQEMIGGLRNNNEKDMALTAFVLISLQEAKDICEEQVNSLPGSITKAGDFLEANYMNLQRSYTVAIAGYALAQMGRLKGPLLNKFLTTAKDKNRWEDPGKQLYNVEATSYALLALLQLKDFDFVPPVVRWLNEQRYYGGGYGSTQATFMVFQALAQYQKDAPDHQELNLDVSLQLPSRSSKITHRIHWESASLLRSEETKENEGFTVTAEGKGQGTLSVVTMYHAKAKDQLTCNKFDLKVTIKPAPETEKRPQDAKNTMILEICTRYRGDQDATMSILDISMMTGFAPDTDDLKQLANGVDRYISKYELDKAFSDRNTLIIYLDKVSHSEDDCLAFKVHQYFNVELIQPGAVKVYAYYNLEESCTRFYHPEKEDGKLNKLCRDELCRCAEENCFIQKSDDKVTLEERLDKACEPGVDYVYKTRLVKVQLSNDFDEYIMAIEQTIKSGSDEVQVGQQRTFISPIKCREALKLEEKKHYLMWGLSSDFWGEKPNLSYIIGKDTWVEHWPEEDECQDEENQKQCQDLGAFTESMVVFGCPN
row,Binder,EC50 of hC3 cleavage [nM]
1,MTSP-1 H40R/I41H/Y60gF/F97D/F99L/C122S/Q175K/Q192G/D217R/K224Q (enzyme) VVGGTDADEGEWPWQVSLHALGQGRHCGASLISPNWLVSAAHCYIDDRGFRFSDPTQWTAFLGLHDQSQRSAPGVQERRLKRIISHPFFNDDTLDYDIALLELEKPAEYSSMVRPISLPDASHVFPAGKAIWVTGWGHTQYGGTGALILQKGEIRVINQTTCENLLPQKITPRMMCVGFLSGGVDSCGGDSGGPLSSVEADGRIFQAGVVSWGRGCAQRNQPGVYTRLPLFRDWIKENTGV,93.4
2,MTSP-1 H40R/I41H/F97D/F99L/C122S/G151N/Q192H/D217K/K224A (enzyme) VVGGTDADEGEWPWQVSLHALGQGRHCGASLISPNWLVSAAHCYIDDRGFRYSDPTQWTAFLGLHDQSQRSAPGVQERRLKRIISHPFFNDDTLDYDIALLELEKPAEYSSMVRPISLPDASHVFPAGKAIWVTGWGHTQYGGTNALILQKGEIRVINQTTCENLLPQQITPRMMCVGFLSGGVDSCHGDSGGPLSSVEADGRIFQAGVVSWGKGCAQRNAPGVYTRLPLFRDWIKENTGV,137
3,MTSP-1 H40R/I41H/F97D/F99L/C122S/G151N/Q192N/D217L/K224R (enzyme) VVGGTDADEGEWPWQVSLHALGQGRHCGASLISPNWLVSAAHCYIDDRGFRYSDPTQWTAFLGLHDQSQRSAPGVQERRLKRIISHPFFNDDTLDYDIALLELEKPAEYSSMVRPISLPDASHVFPAGKAIWVTGWGHTQYGGTNALILQKGEIRVINQTTCENLLPQQITPRMMCVGFLSGGVDSCNGDSGGPLSSVEADGRIFQAGVVSWGLGCAQRNRPGVYTRLPLFRDWIKENTGV,346
4,MTSP-1 I41R/F97T/ins97aE/T98G/F99L/C122S/G151N/Q175I/Q192E (enzyme) VVGGTDADEGEWPWQVSLHALGQGHRCGASLISPNWLVSAAHCYIDDRGFRYSDPTQWTAFLGLHDQSQRSAPGVQERRLKRIISHPFFNDTEGLDYDIALLELEKPAEYSSMVRPISLPDASHVFPAGKAIWVTGWGHTQYGGTNALILQKGEIRVINQTTCENLLPQIITPRMMCVGFLSGGVDSCEGDSGGPLSSVEADGRIFQAGVVSWGDGCAQRNKPGVYTRLPLFRDWIKENTGV,1030
5,MTSP-1 ins97aD/F97G/T98N/F99L/C122S/Q192E/D217Y/K224R (enzyme) VVGGTDADEGEWPWQVSLHALGQGHICGASLISPNWLVSAAHCYIDDRGFRYSDPTQWTAFLGLHDQSQRSAPGVQERRLKRIISHPFFNDGDNLDYDIALLELEKPAEYSSMVRPISLPDASHVFPAGKAIWVTGWGHTQYGGTGALILQKGEIRVINQTTCENLLPQQITPRMMCVGFLSGGVDSCEGDSGGPLSSVEADGRIFQAGVVSWGYGCAQRNRPGVYTRLPLFRDWIKENTGV,9870
6,MTSP-1 S90T/D96A/ins97aE/F97T/T98G/F99L/C122S/Q175L/Q192D (enzyme) VVGGTDADEGEWPWQVSLHALGQGHICGASLISPNWLVSAAHCYIDDRGFRYSDPTQWTAFLGLHDQSQRSAPGVQERRLKRIITHPFFNATEGLDYDIALLELEKPAEYSSMVRPISLPDASHVFPAGKAIWVTGWGHTQYGGTGALILQKGEIRVINQTTCENLLPQLITPRMMCVGFLSGGVDSCDGDSGGPLSSVEADGRIFQAGVVSWGDGCAQRNKPGVYTRLPLFRDWIKENTGV,280
7,MTSP-1 ins97aN/F97H/T98D/F99L/C122S/Q192E/D217Q/K224S (enzyme) VVGGTDADEGEWPWQVSLHALGQGHICGASLISPNWLVSAAHCYIDDRGFRYSDPTQWTAFLGLHDQSQRSAPGVQERRLKRIISHPFFNDHNDLDYDIALLELEKPAEYSSMVRPISLPDASHVFPAGKAIWVTGWGHTQYGGTGALILQKGEIRVINQTTCENLLPQQITPRMMCVGFLSGGVDSCEGDSGGPLSSVEADGRIFQAGVVSWGQGCAQRNSPGVYTRLPLFRDWIKENTGV,2750
8,MTSP-1 I41R/ins97aE/F97T/T98G/F99L/C122S/G151D/Q175I/Q192D (enzyme) VVGGTDADEGEWPWQVSLHALGQGHRCGASLISPNWLVSAAHCYIDDRGFRYSDPTQWTAFLGLHDQSQRSAPGVQERRLKRIISHPFFNDTEGLDYDIALLELEKPAEYSSMVRPISLPDASHVFPAGKAIWVTGWGHTQYGGTDALILQKGEIRVINQTTCENLLPQIITPRMMCVGFLSGGVDSCDGDSGGPLSSVEADGRIFQAGVVSWGDGCAQRNKPGVYTRLPLFRDWIKENTGV,1750
9,MTSP-1 I41R/F97T/ins97aE/T98G/F99L/C122S/G151D/Q175I/Q192E (enzyme) VVGGTDADEGEWPWQVSLHALGQGHRCGASLISPNWLVSAAHCYIDDRGFRYSDPTQWTAFLGLHDQSQRSAPGVQERRLKRIISHPFFNDTEGLDYDIALLELEKPAEYSSMVRPISLPDASHVFPAGKAIWVTGWGHTQYGGTDALILQKGEIRVINQTTCENLLPQIITPRMMCVGFLSGGVDSCEGDSGGPLSSVEADGRIFQAGVVSWGDGCAQRNKPGVYTRLPLFRDWIKENTGV,2070
10,MTSP-1 I41R/F97T/ins97aE/T98G/F99L/C122S/G151N/Q175I/Q192D (enzyme) VVGGTDADEGEWPWQVSLHALGQGHRCGASLISPNWLVSAAHCYIDDRGFRYSDPTQWTAFLGLHDQSQRSAPGVQERRLKRIISHPFFNDTEGLDYDIALLELEKPAEYSSMVRPISLPDASHVFPAGKAIWVTGWGHTQYGGTNALILQKGEIRVINQTTCENLLPQIITPRMMCVGFLSGGVDSCDGDSGGPLSSVEADGRIFQAGVVSWGDGCAQRNKPGVYTRLPLFRDWIKENTGV,8370
11,MTSP-1 ins97aD/F97T/T98S/F99L/C122S/Q192E/D217Y/K224R (enzyme) VVGGTDADEGEWPWQVSLHALGQGHICGASLISPNWLVSAAHCYIDDRGFRYSDPTQWTAFLGLHDQSQRSAPGVQERRLKRIISHPFFNDTDSLDYDIALLELEKPAEYSSMVRPISLPDASHVFPAGKAIWVTGWGHTQYGGTGALILQKGEIRVINQTTCENLLPQQITPRMMCVGFLSGGVDSCEGDSGGPLSSVEADGRIFQAGVVSWGYGCAQRNRPGVYTRLPLFRDWIKENTGV,5000
12,MTSP-1 ins97aE/F97Y/T98S/F99L/C122S/Q192T/D217Q/K224R (enzyme) VVGGTDADEGEWPWQVSLHALGQGHICGASLISPNWLVSAAHCYIDDRGFRYSDPTQWTAFLGLHDQSQRSAPGVQERRLKRIISHPFFNDYESLDYDIALLELEKPAEYSSMVRPISLPDASHVFPAGKAIWVTGWGHTQYGGTGALILQKGEIRVINQTTCENLLPQQITPRMMCVGFLSGGVDSCTGDSGGPLSSVEADGRIFQAGVVSWGQGCAQRNRPGVYTRLPLFRDWIKENTGV,249
13,MTSP-1 F97N/ins97aT/T98Y/F99N/C122S (enzyme) VVGGTDADEGEWPWQVSLHALGQGHICGASLISPNWLVSAAHCYIDDRGFRYSDPTQWTAFLGLHDQSQRSAPGVQERRLKRIISHPFFNDNTYNDYDIALLELEKPAEYSSMVRPISLPDASHVFPAGKAIWVTGWGHTQYGGTGALILQKGEIRVINQTTCENLLPQQITPRMMCVGFLSGGVDSCQGDSGGPLSSVEADGRIFQAGVVSWGDGCAQRNKPGVYTRLPLFRDWIKENTGV,184
14,MTSP-1 F97M/ins97aD/T98D/F99L/C122S/Q192T (enzyme) VVGGTDADEGEWPWQVSLHALGQGHICGASLISPNWLVSAAHCYIDDRGFRYSDPTQWTAFLGLHDQSQRSAPGVQERRLKRIISHPFFNDMDDLDYDIALLELEKPAEYSSMVRPISLPDASHVFPAGKAIWVTGWGHTQYGGTGALILQKGEIRVINQTTCENLLPQQITPRMMCVGFLSGGVDSCTGDSGGPLSSVEADGRIFQAGVVSWGDGCAQRNKPGVYTRLPLFRDWIKENTGV,151
15,MTSP-1 ins97aV/F97D/T98P/F99L/C122S/Q192G (enzyme) VVGGTDADEGEWPWQVSLHALGQGHICGASLISPNWLVSAAHCYIDDRGFRYSDPTQWTAFLGLHDQSQRSAPGVQERRLKRIISHPFFNDDVPLDYDIALLELEKPAEYSSMVRPISLPDASHVFPAGKAIWVTGWGHTQYGGTGALILQKGEIRVINQTTCENLLPQQITPRMMCVGFLSGGVDSCGGDSGGPLSSVEADGRIFQAGVVSWGDGCAQRNKPGVYTRLPLFRDWIKENTGV,53.5
16,MTSP-1 ins97aV/F97Q/T98P/F99L/C122S/Q175F/Q192D (enzyme) VVGGTDADEGEWPWQVSLHALGQGHICGASLISPNWLVSAAHCYIDDRGFRYSDPTQWTAFLGLHDQSQRSAPGVQERRLKRIISHPFFNDQVPLDYDIALLELEKPAEYSSMVRPISLPDASHVFPAGKAIWVTGWGHTQYGGTGALILQKGEIRVINQTTCENLLPQFITPRMMCVGFLSGGVDSCDGDSGGPLSSVEADGRIFQAGVVSWGDGCAQRNKPGVYTRLPLFRDWIKENTGV,248
17,MTSP-1 F97Q/ins97aT/T98M/C122S/Q192E/D217R/K224L (enzyme) VVGGTDADEGEWPWQVSLHALGQGHICGASLISPNWLVSAAHCYIDDRGFRYSDPTQWTAFLGLHDQSQRSAPGVQERRLKRIISHPFFNDQTMFDYDIALLELEKPAEYSSMVRPISLPDASHVFPAGKAIWVTGWGHTQYGGTGALILQKGEIRVINQTTCENLLPQQITPRMMCVGFLSGGVDSCEGDSGGPLSSVEADGRIFQAGVVSWGRGCAQRNLPGVYTRLPLFRDWIKENTGV,2450
18,MTSP-1 ins97aA/F97G/T98N/F99L/C122S/Q175M/Q192T/K224A (enzyme) VVGGTDADEGEWPWQVSLHALGQGHICGASLISPNWLVSAAHCYIDDRGFRYSDPTQWTAFLGLHDQSQRSAPGVQERRLKRIISHPFFNDGANLDYDIALLELEKPAEYSSMVRPISLPDASHVFPAGKAIWVTGWGHTQYGGTGALILQKGEIRVINQTTCENLLPQMITPRMMCVGFLSGGVDSCTGDSGGPLSSVEADGRIFQAGVVSWGDGCAQRNAPGVYTRLPLFRDWIKENTGV,200
19,MTSP-1 I41R/ins97aE/F97T/T98G/F99L/C122S/G151N/Q175S/Q192D (enzyme) VVGGTDADEGEWPWQVSLHALGQGHRCGASLISPNWLVSAAHCYIDDRGFRYSDPTQWTAFLGLHDQSQRSAPGVQERRLKRIISHPFFNDTEGLDYDIALLELEKPAEYSSMVRPISLPDASHVFPAGKAIWVTGWGHTQYGGTNALILQKGEIRVINQTTCENLLPQSITPRMMCVGFLSGGVDSCDGDSGGPLSSVEADGRIFQAGVVSWGDGCAQRNKPGVYTRLPLFRDWIKENTGV,2080
20,MTSP-1 ins97aG/F97N/T98D/F99L/C122S/Q192E/D217H/K224A (enzyme) VVGGTDADEGEWPWQVSLHALGQGHICGASLISPNWLVSAAHCYIDDRGFRYSDPTQWTAFLGLHDQSQRSAPGVQERRLKRIISHPFFNDNGDLDYDIALLELEKPAEYSSMVRPISLPDASHVFPAGKAIWVTGWGHTQYGGTGALILQKGEIRVINQTTCENLLPQQITPRMMCVGFLSGGVDSCEGDSGGPLSSVEADGRIFQAGVVSWGHGCAQRNAPGVYTRLPLFRDWIKENTGV,2790
21,MTSP-1 ins97aD/F97Q/T98G/F99L/C122S/Q175L/Q192E/D217F/K224S (enzyme) VVGGTDADEGEWPWQVSLHALGQGHICGASLISPNWLVSAAHCYIDDRGFRYSDPTQWTAFLGLHDQSQRSAPGVQERRLKRIISHPFFNDQDGLDYDIALLELEKPAEYSSMVRPISLPDASHVFPAGKAIWVTGWGHTQYGGTGALILQKGEIRVINQTTCENLLPQLITPRMMCVGFLSGGVDSCEGDSGGPLSSVEADGRIFQAGVVSWGFGCAQRNSPGVYTRLPLFRDWIKENTGV,5560
